Experimental data: patent publication US20180079804A1 (Hoffmann-La Roche, published 2018)
Numbering of substitutions follows the chain as printed. Non-standard residues stand in square brackets, D forms with d. No end group written: not given here. *: point of attachment. Biotin = O=C1N[C@H]2[C@H](CS[C@H]2CCCCC(=O)*)N1; pS = N[C@@H](COP(=O)(O)O)C(=O)O; code U = not defined here; code X = not defined here

B1: VH32/VL21 (antibody, V domains shown)
VH: EVQVLESGGGLVQPGGSLRLSCAVSGFSLSSNAINWVRQAPGKGLEWVGYIAVSGNTYYASWAKGRFTISRDNSKNTVYLQMNSLRAEDTAVYYCGKSNIWGQGTLVTVSS
VL: AQVMTQSPSSLSASVGDRVTITCRSSQSVRTNKLAWFQQKPGQPPKRLIYSASTLDFGVPSRFSGSGSGTEFTLTISSLQPEDFATYYCLGYFDSSADIVAFGGGTKVEIK
notes: full size IgG
B2: VH32/VL22 (antibody, V domains shown)
VH: B1 VH
VL: B1 VL with K33R, F57Y
notes: full size IgG
B3: VH35H5/VL31A1 (antibody, V domains shown)
VH: B1 VH with F27I
VL: B1 VL with T31N, T54D, F57Y
notes: IgG captured via anti-human Fc; also called antibody 1
B4: VH35H5/VL49G1 (antibody, V domains shown)
VH: B1 VH with F27I
VL: B1 VL with T31S, T54N, F57Y
notes: IgG captured via anti-human Fc; also called antibody 2
B5: VH35H5/VL35F2 (antibody, V domains shown)
VH: B1 VH with F27I
VL: B1 VL with S96P, A97L
notes: IgG captured via anti-human Fc
B6: mAb 086 (antibody, V domains shown)
VH: QSVEESGGRLVTPGTPLTLTCTVSGFSLSSNAINWVRQAPGKGLEWIGYIAVSGNTYYASWAKGRFTISKASTTVDLKMTSPTAEDTGTYFCGKSNIWGPGTLVTVSL
VL: AQVLTQTTSPVSAAVGSTVTISCQSSQSVRTNKLAWFQQKPGQPPKRLIYSASTLDFGVPSRFSASGSGTQFTLTISDVQCDDAATYYCLGYFDCSIADCVAFGGGTEVVVK
notes: also called rabbit antibody 086
B7: VH00/VL00 (antibody, V domains shown)
VH: B6 VH
VL: B6 VL
notes: variable domains of rabbit mAb 086; also called VH00 with VL00 (rabbit antibody); parental rabbit antibody
B8: VH32/VL4G1 (antibody, V domains shown)
VH: B1 VH
VL: B1 VL with S96P
B9: VH76A6/VL35G4 (antibody, V domains shown)
VH: B1 VH with S31N, N32S
VL: B1 VL with L90A, D94E, S95A, S96P
notes: as for B5
B10: VH76A6/VL145B12 (antibody, V domains shown)
VH: B1 VH with S31N, N32S
VL: B1 VL with T31S, S51A, T54N
notes: as for B5
B11: VH32/VL35G4 (antibody, V domains shown)
VH: B1 VH
VL: B1 VL with L90A, D94E, S95A, S96P
notes: as for B5
B12: VH35H5/VL31A1 Fab fragment (Fab, V domains shown)
VH: B1 VH with F27I
VL: B1 VL with T31N, T54D, F57Y
B13: VH35H5/VL49G1 Fab fragment (Fab, V domains shown)
VH: B1 VH with F27I
VL: B1 VL with T31S, T54N, F57Y
B14: VH32/VL22 Fab fragment (Fab, V domains shown)
VH: B1 VH
VL: B1 VL with K33R, F57Y

molecular target: T1, full length human tau SEQ ID NO: 01 (human, UniProt P10636 1-758); assay: ELISA, non-phosphorylated full-length human tau coated at 1 ug/ml, antibody titrated
T1 construct: not phosphorylated; also called tau protein; non-phosphorylated full-length human tau
T1 sequence (P10636 other isoform, or with tags, fused parts or gaps limits assumed): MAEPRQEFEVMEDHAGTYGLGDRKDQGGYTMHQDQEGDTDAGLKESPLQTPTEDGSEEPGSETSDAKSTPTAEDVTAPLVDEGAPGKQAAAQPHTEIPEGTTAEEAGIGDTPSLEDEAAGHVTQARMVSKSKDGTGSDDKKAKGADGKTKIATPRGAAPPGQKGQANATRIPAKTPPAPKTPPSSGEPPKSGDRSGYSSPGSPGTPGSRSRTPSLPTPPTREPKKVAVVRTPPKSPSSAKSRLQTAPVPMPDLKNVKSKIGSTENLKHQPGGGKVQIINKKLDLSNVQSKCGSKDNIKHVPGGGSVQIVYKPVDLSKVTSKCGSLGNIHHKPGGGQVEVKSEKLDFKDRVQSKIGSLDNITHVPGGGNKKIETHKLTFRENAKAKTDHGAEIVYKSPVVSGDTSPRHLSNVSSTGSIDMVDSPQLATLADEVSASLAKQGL

Binder | binding result
B1 | no binding (tested: 1000 ng/ml)
B2 | no binding (tested: 1000 ng/ml)

Molecular target: T2, Tau(pS422) fragment SEQ ID NO: 03 (human)
T2 construct: also called phosphorylated tau peptide
T2 peptide: SIDMVD[pS]PQLATLAD
Assay: SPR capture assay (Example 10), 25 C
Protocol: Binding of pTau fragment to anti-pTau antibodies was investigated by surface plasmon resonance using a BIACORE T200 instrument (GE Healthcare). Around 10,000 resonance units (RU) of the capturing system (10 μg/ml goat anti-human Fc antibody; Jackson Immuno Research; Order Code: JIR 109-005-098) were coupled on a CM5 chip (GE Healthcare BR-1005-30) at pH 5.0 by using an amine coupling kit supplied by the GE Healthcare. As running buffer, HBS-N pH 7.4 (10 mM HEPES, 150 mM NaCl, pH 7.4, GE Healthcare) was used. For measurement of the samples, running and dilution buffer was PBS-T (10 mM phosphate buffered saline including 0.05% Tween 20), pH 7.4. The sample block was set to 12° C. The flow cell was set to 25° C. and primed with running buffer twice.

Binder | Kd | koff | kon
B3 | 1.62 nM | 0.000616 s⁻¹ | 380000 M⁻¹ s⁻¹
B4 | 2 nM | 0.000624 s⁻¹ | 312000 M⁻¹ s⁻¹
B5 | 2.29 nM | 0.000321 s⁻¹ | 140000 M⁻¹ s⁻¹

Molecular target: T2, Tau(pS422) fragment SEQ ID NO: 03
Assay: ELISA, ratio of EC50 values
Protocol: Rabbit monoclonal antibodies were recombinantly expressed in HEK293 cells. […] For preparation of ELISA plates, streptavidin pre-coated microtiter plates were incubated with biotinylated tau (415-430)[pS422] at 50 ng/ml for 1 hour at room temperature. Coating with KLH or control peptides was performed at 1 μg/ml. Rabbit anti-Tau(pS422) antibody (Abcam AB51071) or rabbit antibody containing supernatants were incubated in the antigen labeled microtiter plates for 60 minutes at various concentrations. After intensive washing, the binding of the rabbit antibodies was detected using a sheep anti-rabbit IgG […] conjugated detection antibody (Chemicon AQ301D). After incubation with TMB at room temperature absorbance at 370 nm-492 nm was measured. The antibody binding was characterized by its EC₅₀ values. […] Cross-reactivity with KLH or MCAK phosphopeptide was estimated by single-point measurement at high concentrations, i.e., at 1:5 dilution of the cell culture supernatants. […] Binding to KLH and MCAK control phosphopeptide was at background level with all antibodies, which is about 1 to 3% of the maximal value measures with tau phosphopeptide.

Binder | selectivity for phosphorylated tau fragment compared to non-phosphorylated tau peptide
B6 | ≥ 100 fold

Molecular target: T3, tau peptide residues 416 to 430 of SEQ ID NO: 01 (human, also: biotinylated, site not given here)
T3 construct: also called non-phosphorylated tau peptide
T3 peptide: SIDMVDSPQLATLAD
Assay: ELISA
Protocol: (§1) Non-biotinylated peptide/protein/aggregate was added to non-coated Maxisorb plates, biotinylated peptide/protein/aggregate in PBS was added to streptavidin-coated Maxisorb plates, and plates were incubated over-night. The supernatant was discarded and the wells washed three times with 90 μl wash buffer (1x PBS/0.1% Tween 20). Remaining reactive spots were blocked with blocking buffer (1x PBS/2% BSA (Bovine Serum Albumin Fraction V, fatty acid free, Roche, Cat. No.: 10735078001)/0.05% Tween 20) by incubating for 1 hour. The supernatant was discarded and the wells washed three times with 90 μl wash buffer. Samples and control antibody were prepared in 12 dilutions (1:2) in ELISA buffer (1×PBS/0.5% BSA (Bovine Serum Albumin Fraction V, fatty acid free, Roche, Cat. […] The incubation time was 60 minutes at room temperature on a shaker. The supernatant was discarded and the wells washed three times with 90 μl wash buffer. Solutions of secondary antibody were prepared in ELISA buffer. A total of 25 μl antibody-mix was transferred to all wells of the assay plate and the plate was thereafter incubated on shaker for 60 minutes at room temperature. The supernatant was discarded and the wells were washed three times with 90 μl wash buffer. 25 μl of ABTS solution was added to all wells. The absorbance was read at 405 nm-492 nm.

Binder | OD@1 µg/mL
B7 | 0.54 OD
B2 | 2.26 OD
B8 | 1.13 OD
B3 | 1.03 OD
B9 | 0.07 OD
B10 | 0.44 OD
B4 | 1.42 OD
B11 | 0.07 OD
B5 | 1.31 OD

molecular target: T1, full length human tau SEQ ID NO: 01; assay: ELISA
Protocol: as §1

Binder | OD@1 µg/mL
B7 | 0.04 OD
B2 | 0.14 OD
B8 | 0.04 OD
B3 | 0.04 OD
B9 | 0.04 OD
B10 | 0.04 OD
B4 | 0.04 OD
B11 | 0.04 OD
B5 | 0.04 OD

Molecular target: T2, Tau(pS422) fragment SEQ ID NO: 03
Assay: ELISA
Protocol: as §1

Binder | EC50
B2 | 0.0404 µg/mL
B8 | 0.0273 µg/mL
B3 | 0.033 µg/mL
B4 | 0.034 µg/mL
B5 | 0.0452 µg/mL

Molecular target: T2, Tau(pS422) fragment SEQ ID NO: 03
Assay: ELISA
Remark: another data set of the same source
Protocol: Non-biotinylated peptide/protein/aggregate was added to non-coated Maxisorb plates, biotinylated peptide/protein/aggregate in PBS was added to streptavidin-coated Maxisorb plates, and plates were incubated over-night. The supernatant was discarded and the wells washed three times with 90 μl wash buffer (1x PBS/0.1% Tween 20). Remaining reactive spots were blocked with blocking buffer (1x PBS/2% BSA (Bovine Serum Albumin Fraction V, fatty acid free, Roche, Cat. No.: 10735078001)/0.05% Tween 20) by incubating for 1 hour. The supernatant was discarded and the wells washed three times with 90 μl wash buffer. Samples and control antibody were prepared in 12 dilutions (1:2) in ELISA buffer (1×PBS/0.5% BSA (Bovine Serum Albumin Fraction V, fatty acid free, Roche, Cat. No.: 10735078001)/0.05% Tween 20) with a start concentration of 500 ng/mL. The incubation time was 60 minutes at room temperature on a shaker. The supernatant was discarded and the wells washed three times with 90 μl wash buffer. Solutions of secondary antibody were prepared in ELISA buffer. A total of 25 μl antibody-mix was transferred to all wells of the assay plate and the plate was thereafter incubated on shaker for 60 minutes at room temperature. The supernatant was discarded and the wells were washed three times with 90 μl wash buffer. 25 μl of ABTS solution was added to all wells. The absorbance was read at 405 nm-492 nm.

Binder | EC50
B2 | 0.0056 µg/mL

Molecular target: T4, biotinylated pTau fragment pTau(416-430)[Bi-XUUUU-416; pSer-422]amid (human, reading uncertain; also: printed as pTau(416-430)[Bi-XUUUU-416; pSer-422]amid)
T4 construct: also called Tau(pS422) fragment
T4 peptide: {Biotin-code X-code U-code U-code U-code U}-SIDMVD[pS]PQLATLAD-NH2
Assay: SPR direct assay (Example 11), Fab over immobilized biotinylated fragment, 25 C
Protocol: Binding of anti-pTau antibody Fab fragment samples to pTau fragment was investigated by surface plasmon resonance using a BIACORE T200 instrument (GE Healthcare). […] Running and dilution buffer for immobilization was HBS-N, pH 7.4 (10 mM HEPES, 150 mM NaCl, pH 7.4, GE Healthcare). For the following kinetic characterization, running and dilution buffer was PBS-T (10 mM phosphate buffered saline including 0.05% Tween 20), pH 7.4. The sample block was set to 12° C. The flow cell was set to 25° C. and primed with running buffer twice.
Association was measured by injection of the anti-pTau antibody Fab fragment samples at various concentrations in solution for 180 seconds at a flow of 30 μl/min starting with 100 nM in 1:3 dilutions. The dissociation phase was monitored for up to 600 seconds and triggered by switching from the sample solution to running buffer. The surface was regenerated by washing with one injection of 10 mM glycine solution, pH 1.7 for 60 seconds at a flow rate of 10 μl/minute. Bulk refractive index differences were corrected by subtracting the response obtained from a blank surface. Blank injections were also subtracted (=double referencing). For calculation of KD and other kinetic parameters the Langmuir 1:1 model was used.

Binder | Kd | koff | kon
B12 | 0.3 nM | 0.000143 s⁻¹ | 410000 M⁻¹ s⁻¹
B13 | 0.1 nM | 6.03e-05 s⁻¹ | 423000 M⁻¹ s⁻¹
B14 | 0.6 nM | 0.000276 s⁻¹ | 479000 M⁻¹ s⁻¹
